According to US20240024426A1, “HYPOTENSIVE PHARMACEUTICAL COMPOSITION COMPRISING TRIPLE ACTIVATOR HAVING ACTIVITY FOR ALL OF GLUCAGON, GLP-1, AND GIP RECEPTORS” (HANMI PHARM. CO., LTD., priority 2020, published 2024):
Bridges are numbered along the chain shown (N, C = ends). Where no end group is shown, it is not given here. [ ]: non-standard residue; d: D form. The star is where a group is joined. Acetyl(2-(4-imidazolyl)) = O=C(Cc1c[nH]cn1)*; Aib = CC(C)(N)C(=O)O

T1: human GIP receptor (human, UniProt P48546 22-466)
T1 sequence (looked up): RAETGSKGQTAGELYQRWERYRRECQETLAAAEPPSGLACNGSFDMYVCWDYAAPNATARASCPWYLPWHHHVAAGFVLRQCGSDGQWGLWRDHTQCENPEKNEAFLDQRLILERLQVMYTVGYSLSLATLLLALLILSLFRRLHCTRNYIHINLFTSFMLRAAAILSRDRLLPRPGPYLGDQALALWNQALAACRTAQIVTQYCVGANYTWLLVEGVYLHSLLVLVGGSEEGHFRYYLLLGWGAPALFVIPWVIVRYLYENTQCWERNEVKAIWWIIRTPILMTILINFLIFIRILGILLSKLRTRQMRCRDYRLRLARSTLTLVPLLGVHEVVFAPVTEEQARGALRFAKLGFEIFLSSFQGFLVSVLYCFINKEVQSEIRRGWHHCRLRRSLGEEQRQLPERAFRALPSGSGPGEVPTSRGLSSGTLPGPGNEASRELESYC


Columns and labels:
Test in all cases: cell-based or functional assay
human GLP-1 receptor = human GLP-1 receptor (human, UniProt P43220 24-463)
human GCG receptor = human GCG receptor (human, UniProt P47871 26-477)
Chain of human GCG receptor (P47871 26-477): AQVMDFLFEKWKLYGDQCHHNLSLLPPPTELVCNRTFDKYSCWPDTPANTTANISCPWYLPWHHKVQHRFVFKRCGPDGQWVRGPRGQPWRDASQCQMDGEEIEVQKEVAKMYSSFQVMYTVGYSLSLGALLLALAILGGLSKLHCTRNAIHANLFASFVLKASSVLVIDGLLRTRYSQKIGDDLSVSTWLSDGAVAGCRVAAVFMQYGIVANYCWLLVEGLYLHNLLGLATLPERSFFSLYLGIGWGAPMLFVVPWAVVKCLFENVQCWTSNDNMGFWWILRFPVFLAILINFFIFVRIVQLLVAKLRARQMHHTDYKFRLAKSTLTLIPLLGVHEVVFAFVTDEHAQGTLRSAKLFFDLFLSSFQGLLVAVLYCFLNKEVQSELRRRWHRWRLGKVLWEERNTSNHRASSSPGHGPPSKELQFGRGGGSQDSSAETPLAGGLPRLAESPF

human GIP receptor = target: T1, human GIP receptor

Row | Binder | In vitro activity compared with native peptide (%) vs. GLP-1 (human GLP-1 receptor) [%] | In vitro activity compared with native peptide (%) vs. Glucagon (human GCG receptor) [%] | In vitro activity compared with native peptide (%) vs. GIP (human GIP receptor) [%]
1 | Y[Aib]QGTFTSDYSKYLDEKRAKEFVQWLLDCHPSSGQPPPS (bridge 16-20) [Triple agonist of SEQ ID NO: 97] | 10.5 | 62.8 | 2.6
2 | {Acetyl(2-(4-imidazolyl))}-[Aib]QGTFTSDYSIAMDEIHQKDFVNWLLNTKC (bridge 15-19) [Triple agonist of SEQ ID NO: 94] | 0.5 | < 0.1 | < 0.1
3 | H[Aib]QGTFTSDCSKYLDERAAQDFVQWLLDGGPSSGAPPPS [Triple agonist of SEQ ID NO: 25] | 82.6 | 0.1 | < 0.1
4 | [Acetyl(2-(4-imidazolyl))]GQGTFTSDLSIQYDSEHQRDFIEWLKDTGPSSGAPPPSHG [Triple agonist of SEQ ID NO: 19] | < 0.1 | < 0.1 | < 0.1
5 | [Acetyl(2-(4-imidazolyl))][Aib]QGTFTSDYSIAMDEIHQKDFVNWLLAQKC (bridge 16-20) [Triple agonist of SEQ ID NO: 92] | 0.8 | < 0.1 | 0.4
6 | H[Aib]QGTFTSDCSKYLDSRAAQDFVQWLLDGGPSSGAPPPS [Triple agonist of SEQ ID NO: 26] | 64.5 | 0.2 | < 0.1
7 | Y[Aib]QGTFTSDYSKYLDEKRAKEFVQWLLCHHPSSGQPPPS (bridge 16-20) [Triple agonist of SEQ ID NO: 95] | 2.1 | 0.4 | < 0.1
8 | H[Aib]QGTFTSDVSSYLLGQAAKQFIAWLVKGGGPSSGAPPPSC [Triple agonist of SEQ ID NO: 3] | 1.8 | < 0.1 | < 0.1
9 | {Acetyl(2-(4-imidazolyl))}-GQGTFTSDYSIQLDEIAVRDFVEWLKNGGPSSGAPPPSHG [Triple agonist of SEQ ID NO: 14] | 28 | < 0.1 | < 0.1
10 | {Acetyl(2-(4-imidazolyl))}-GEGTFISDYSIQLDEIAVQDFVEWLLAQKPSSGAPPPSHG [Triple agonist of SEQ ID NO: 13] | < 0.1 | < 0.1 | < 0.1
11 | H[Aib]QGTFTSDVSKYLDGQAAQEFVAWLLAGGGPSSGAPPPSC [Triple agonist of SEQ ID NO: 10] | 46 | < 0.1 | < 0.1
12 | H[Aib]QGTFTSDVSSYLDGQAQKEFIAWLVKGC [Triple agonist of SEQ ID NO: 2] | 5.9 | < 0.1 | < 0.1
13 | {Acetyl(2-(4-imidazolyl))}-GEGTFISDLSKYMDEQAVQLFVEWLMAGGPSSGAPPPSHG [Triple agonist of SEQ ID NO: 12] | 0.4 | < 0.1 | < 0.1
14 | Y[Aib]QGTFTSDYSKYLDECRAKEFVQWLLDHHPSSGQPPPS (bridge 16-20) [Triple agonist of SEQ ID NO: 21] | 17.8 | 267 | 22.7
15 | Y[Aib]QGTFTSDYSKALDEKAAKEFVQWLLDQHPSSGQPPPSC (bridge 16-20) [Triple agonist of SEQ ID NO: 100] | 42.2 | 12.7 | 118
16 | [Acetyl(2-(4-imidazolyl))]GQGTFTSDLSKQMDSERAREFIEWLKNTGPSSGAPPPSHG [Triple agonist of SEQ ID NO: 18] | < 0.1 | < 0.1 | < 0.1
17 | Y[Aib]QGTFTSDYSKALDEKAAKDFVNWLLDHHPSSGQPPPSC (bridge 16-20) [Triple agonist of SEQ ID NO: 99] | 20.9 | 14.9 | 57.7
18 | {Acetyl(2-(4-imidazolyl))}-GEGTFTSDLSKYLDSRRQQLFVQWLKAGGPSSGAPPPSHG [Triple agonist of SEQ ID NO: 11] | 1.4 | < 0.1 | < 0.1
19 | {Acetyl(2-(4-imidazolyl))}-[Aib]QGTFTSDYSKYLDEKRQKEFVNWLLAQKC (bridge 15-19) [Triple agonist of SEQ ID NO: 93] | 5.7 | 0.3 | 0.7
20 | Y[Aib]QGTFTSDYSKALDEKAAKDFVNWLLDQHPSSGQPPPSC (bridge 16-20) [Triple agonist of SEQ ID NO: 102] | 23.3 | 29.5 | 58
21 | Y[Aib]QGTFTSDYSKCLDEKRAKEFVQWLLDHHPSSGQPPPS (bridge 16-20) [Triple agonist of SEQ ID NO: 22] | 20.1 | 140 | 59.7
22 | Y[Aib]QGTFTSDYSKYLDEKRAKEFVQWLLDHCPSSGQPPPS (bridge 16-20) [Triple agonist of SEQ ID NO: 96] | 34.4 | 195 | 5.2
23 | Y[Aib]QGTFTSDYSKALDEKAAKEFVNWLLDQHPSSGQPPPSC (bridge 16-20) [Triple agonist of SEQ ID NO: 101] | 23.2 | 13.9 | 40.1
24 | Y[Aib]QGTFTSDYSKALDEKAAKEFVNWLLDHHPSSGQPPPSC (bridge 16-20) [Triple agonist of SEQ ID NO: 98] | 28.1 | 8.2 | 47.1
25 | [Acetyl(2-(4-imidazolyl))]GQGTFTSDLSIQYEEEAQQDFVEWLKDTGPSSGAPPPSHG [Triple agonist of SEQ ID NO: 20] | < 0.1 | < 0.1 | < 0.1
26 | {Acetyl(2-(4-imidazolyl))}-GQGTFTSDLSKQMDSEAQQLFIEWLKNGGPSSGAPPPSHG [Triple agonist of SEQ ID NO: 16] | 2.1 | < 0.1 | < 0.1
27 | {Acetyl(2-(4-imidazolyl))}-GQGTFTSDLSKQMDEERAREFIEWLLAQKPSSGAPPPSHG [Triple agonist of SEQ ID NO: 17] | 0.2 | < 0.1 | < 0.1
28 | Y[Aib]QGTFTSDYSKYLDECRAKEFVQWLKNGGPSSGAPPPS (bridge 16-20) [Triple agonist of SEQ ID NO: 24] | 41.2 | 9.3 | < 0.1
29 | Y[Aib]QGTFTSDYSKYLDECRAKEFVQWLLAQKGKKNDWKHNIT (bridge 16-20) [Triple agonist of SEQ ID NO: 23] | 4.01 | 9.3 | < 0.1
